The assay has as its target rat synaptotagmin 2 fused to the DCTM exosome-sorting peptide, displayed on exosomes (rat) (UniProt P29101). In words: SPR; […] (1 µM); […], single-cycle kinetics, 1:1 model, […]; 25 °C, HBS pH 7.4, 150 mM NaCl. Background: Surface plasmon resonance follows binding to a sensor surface in real time, without labels.
Chain of UniProt P29101 (P29101 whole entry, the tested form may be a part): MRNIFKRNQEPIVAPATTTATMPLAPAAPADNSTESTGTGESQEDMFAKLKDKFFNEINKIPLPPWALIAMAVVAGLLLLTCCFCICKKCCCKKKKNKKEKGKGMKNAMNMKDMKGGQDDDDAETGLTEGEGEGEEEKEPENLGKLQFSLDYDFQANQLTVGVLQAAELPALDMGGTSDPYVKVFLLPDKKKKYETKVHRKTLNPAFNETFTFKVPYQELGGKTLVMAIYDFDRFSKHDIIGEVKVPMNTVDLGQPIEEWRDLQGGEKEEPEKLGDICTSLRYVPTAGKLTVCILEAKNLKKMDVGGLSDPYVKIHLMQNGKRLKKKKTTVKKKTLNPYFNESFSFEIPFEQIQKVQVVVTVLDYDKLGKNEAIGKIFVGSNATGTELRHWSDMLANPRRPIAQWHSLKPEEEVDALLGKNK

Usually Kd stands for the constant that tells how readily two partners part at equilibrium. Read a high Kd as weaker binding. In general, koff refers to the first-order rate constant of dissociation. A higher koff goes with fast dissociation. One may read the kon as a measure of how fast the partners come together. A low value points to slow association. With “BoNT/B (B1 Okra strain) neurotoxin with non-toxic accessory proteins (complex)”, the Kd was 1400 pM, the koff is 0.00041 s⁻¹ and the association rate constant (kon) amounted to 310000 M⁻¹ s⁻¹.
Regarding “BoNT/B holotoxin (B1), pure botulinum neurotoxin type B (natural protein)”, the dissociation constant (Kd) worked out at 600 pM, the off-rate constant (koff) came out at 0.00013 s⁻¹ and the association rate constant (kon) is 230000 M⁻¹ s⁻¹.

For the origin of these results see PMC5430821.
